Results on four molecules are retold here after paper PMC8187647, “Low chorionic villous succinate accumulation associates with recurrent spontaneous abortion risk” (Nature Communications, 2021).

Series [1] addresses T1, SDHA (Homo sapiens, UniProt P31040).
T1 construct: recombinant Flag-tagged SDHA, transient expression in HEK293T, anti-Flag M2 purified
Put plainly: DARTS (Pronase proteolysis, western blot). It is filed as binding. Particulars: 1 mM aspirin, 1 h; Pronase 1:2000, room temperature, 30 min. In general terms: In western blotting, separated proteins are transferred to a membrane and probed.

The target of series [2] is T2, SDHC (Homo sapiens, UniProt Q99643).
T2 construct: recombinant Flag-tagged SDHC, transient expression in HEK293T, anti-Flag M2 purified
T2 sequence (Q99643 30-169): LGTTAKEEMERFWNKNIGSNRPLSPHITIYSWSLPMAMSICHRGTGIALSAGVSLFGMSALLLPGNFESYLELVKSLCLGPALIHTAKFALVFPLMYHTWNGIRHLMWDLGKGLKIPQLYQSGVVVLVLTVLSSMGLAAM
Put plainly: DARTS (Pronase proteolysis, western blot). Particulars: 1 mM aspirin, 1 h; Pronase 1:2000, room temperature, 30 min. It is filed as binding.

In series [3] the target is T3, MBD1 (UniProt Q9UIS9 1-605).
T3 sequence: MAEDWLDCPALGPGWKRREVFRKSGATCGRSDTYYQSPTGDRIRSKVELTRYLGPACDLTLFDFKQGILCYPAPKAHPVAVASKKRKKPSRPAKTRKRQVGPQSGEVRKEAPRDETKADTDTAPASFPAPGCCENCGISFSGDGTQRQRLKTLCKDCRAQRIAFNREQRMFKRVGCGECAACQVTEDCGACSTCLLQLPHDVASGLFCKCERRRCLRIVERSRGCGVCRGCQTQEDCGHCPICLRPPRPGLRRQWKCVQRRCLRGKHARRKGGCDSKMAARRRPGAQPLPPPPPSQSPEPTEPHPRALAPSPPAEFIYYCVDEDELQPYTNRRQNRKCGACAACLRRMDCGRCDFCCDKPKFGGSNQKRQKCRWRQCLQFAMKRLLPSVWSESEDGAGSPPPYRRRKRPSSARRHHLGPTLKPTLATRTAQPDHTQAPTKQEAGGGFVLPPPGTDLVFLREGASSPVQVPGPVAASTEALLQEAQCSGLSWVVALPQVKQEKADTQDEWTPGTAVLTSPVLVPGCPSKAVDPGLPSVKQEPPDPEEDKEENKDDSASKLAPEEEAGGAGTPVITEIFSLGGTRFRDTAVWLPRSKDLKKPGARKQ
Put plainly: EMSA; EMSA Kit (Invitrogen), buffer, salt and pH not stated; 15 °C, 30 min; 6% native polyacrylamide gel. The conditions noted are these: protein: recombinant; tags: His6 (pET22b). Background: Mobility shift assays separate free from complexed probe on a gel.

For series [4], the target named is c-Fos (UniProt P01100 1-380). Described as above. Particulars: protein: recombinant; tags: His6 (pET22b); chain copies: 2.
c-Fos, sequence (P01100 whole entry): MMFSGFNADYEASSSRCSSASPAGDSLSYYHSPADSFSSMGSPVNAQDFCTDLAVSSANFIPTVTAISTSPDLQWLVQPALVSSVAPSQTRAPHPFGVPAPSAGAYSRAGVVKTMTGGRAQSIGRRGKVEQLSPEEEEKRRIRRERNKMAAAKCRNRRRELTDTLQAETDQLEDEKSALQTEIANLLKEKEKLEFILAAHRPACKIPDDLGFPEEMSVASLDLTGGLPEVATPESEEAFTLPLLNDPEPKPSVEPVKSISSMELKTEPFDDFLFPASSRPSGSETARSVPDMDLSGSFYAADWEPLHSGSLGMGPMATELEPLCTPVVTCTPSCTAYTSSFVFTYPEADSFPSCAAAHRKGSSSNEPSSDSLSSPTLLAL

T1 sequence (P31040 43-664): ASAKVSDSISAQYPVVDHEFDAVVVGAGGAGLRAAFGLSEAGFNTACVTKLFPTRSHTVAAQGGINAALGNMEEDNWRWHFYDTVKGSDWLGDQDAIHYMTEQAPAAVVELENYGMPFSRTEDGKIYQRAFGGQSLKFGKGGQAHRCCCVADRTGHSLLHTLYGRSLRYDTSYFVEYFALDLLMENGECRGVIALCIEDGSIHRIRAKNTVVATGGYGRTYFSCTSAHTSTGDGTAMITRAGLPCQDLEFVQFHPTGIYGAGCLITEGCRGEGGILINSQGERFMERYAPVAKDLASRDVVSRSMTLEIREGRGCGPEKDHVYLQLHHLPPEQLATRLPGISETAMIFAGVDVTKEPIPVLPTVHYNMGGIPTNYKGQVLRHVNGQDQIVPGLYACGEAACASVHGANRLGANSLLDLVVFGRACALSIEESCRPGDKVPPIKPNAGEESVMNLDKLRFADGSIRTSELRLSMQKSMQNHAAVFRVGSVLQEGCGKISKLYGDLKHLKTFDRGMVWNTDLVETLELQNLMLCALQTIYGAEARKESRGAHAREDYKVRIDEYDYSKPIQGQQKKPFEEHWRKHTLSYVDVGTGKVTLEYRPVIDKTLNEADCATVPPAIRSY

Regarding `CC(=O)Oc1ccccc1C(=O)O` [aspirin], the “DARTS (Pronase proteolysis, western blot)” value in series [1] is “aspirin can specifically bind to SDHA and SDHC, but not SDHB and SDHD”; in series [2], “aspirin can specifically bind to SDHA and SDHC, but not SDHB and SDHD”.

B1: SDHB promoter -1135 CpG, methylated (dsDNA)
DNA 1: ACTCAAGCCAGTAAGCGTCAGAGATGAATA
DNA 2: TATTCATCTCTGACGCTTACTGGCTTGAGT
modifications: 5mC at C16 of strand 1; methylation of the complement not stated
As to B1, in series [3], the binding result is listed as “binds”.

B2: SDHB promoter -1172/-1165 CpG, methylated (dsDNA)
DNA 1: GGCAAGCTGCACGGTATGCGACAGAAAGGG
DNA 2: CCCTTTCTGTCGCATACCGTGCAGCTTGCC
modifications: 5mC at C12 and C19 of strand 1; methylation of the complement not stated
On to B2, for which the binding result in series [3] is “binds”.

B3: SDHB promoter c-Fos binding region (dsDNA)
DNA 1: ACAGAAAGGGCTGACTCAAGCCAGTAAGCG
DNA 2: CGCTTACTGGCTTGAGTCAGCCCTTTCTGT
Consider B3, for which, in series [4], the binding result is given as “binds”.
